From publication PMC12839305

Target: T1, RVFV glycoprotein Gn head domain (154–469 aa) (Rift Valley fever virus), P21401
T1 chain: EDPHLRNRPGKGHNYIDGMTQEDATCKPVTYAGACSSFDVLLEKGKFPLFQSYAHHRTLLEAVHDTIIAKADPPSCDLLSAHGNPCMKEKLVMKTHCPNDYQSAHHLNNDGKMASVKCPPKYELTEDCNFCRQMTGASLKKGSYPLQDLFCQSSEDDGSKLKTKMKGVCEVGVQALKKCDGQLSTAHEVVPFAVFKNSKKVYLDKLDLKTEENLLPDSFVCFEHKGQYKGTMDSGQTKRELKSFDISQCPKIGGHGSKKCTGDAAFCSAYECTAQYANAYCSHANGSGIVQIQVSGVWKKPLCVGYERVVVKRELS
Test: BLI
Details: modification not given

## HVCLPSQFKCTNTNRCIPGIFRCNGQDNCGDGEDERDCPE [23-Fc]
  Kd: 260 nM
